Source: US20050250717, “Chromatin remodeling protein as a marker expressed by stromal progenitor cells” (Ramot AT Tel Aviv University Ltd., published 2005)

T1: ChroM1 DNA-binding domain recombinant protein (rP, residues 2333-2480) (Homo sapiens, UniProt Q3L8U1 SEQ:2333-2480)
T1 sequence: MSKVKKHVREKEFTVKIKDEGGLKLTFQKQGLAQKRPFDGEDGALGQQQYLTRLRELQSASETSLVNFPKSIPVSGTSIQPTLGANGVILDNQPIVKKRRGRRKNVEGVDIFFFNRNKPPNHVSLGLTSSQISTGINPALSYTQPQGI


What was measured:
[1] = molecular target: T1, ChroM1 DNA-binding domain recombinant …; assay: EMSA; 1-3 ug rP; binding increases with protein; abolished by 100x cold oligo; 26 mM Hepes pH 7.9, 2 mM MgCl2, 40 mM KCl, RT; strandedness of probe not stated; settings: label: 32P
Procedure: Electrophoretic mobility shift assay (EMSA): EMSA was performed between recombinant protein (rP) containing the DNA binding domain (residues 2333-2480 from sequence of ChroM1) and ³²P-labeled 32-mer oligonucleotide containing 24 A·T nucleotides, […] (SEQ ID NO:14). 1-3 μg of rP and 100,000 cpm of ³²P-labeled oligonucleotides were used for the binding reaction in the presence or absence of 100 fold excess cold oligonucleotide. The reaction was carried out in 20 μl of binding buffer (26 mM Hepes, pH 7.9, 2 mM MgCl₂, 40 mM KC1, 1 mM dithiothreitol and 0.25% BSA). The samples were incubated for 15 min at room temperature prior to loading in 5% native polyacrylamide gel in 0.25 Tris borate-EDTA (TBE). The gel was run for 40 min at RT and in TBE buffer. The gels were then dried and autoradiographed.

[2] = molecular target: T1, ChroM1 DNA-binding domain recombinant …; assay: EMSA; binding reduced by distamycin A

Binder	binding result [1]	binding result [2]
A/T-rich 32-mer oligonucleotide (dsDNA) DNA 1: GATCCATATATATATATATATATATATATGCA DNA 2: TGCATATATATATATATATATATATATGGATC	binds	
BMP4 distal promoter PCR fragment (145 bp) (dsDNA) DNA 1: GCTAAAGGAGCACAATGCCTGATGCTGCAGGAGAAACATTAGGTAACTATTTAATGGAGTTTTAATTTTCTGTTATTATTTTTAATAATTAATTGTGATTTTGACTATTTGGAAGCTACAGGTATATTTTGTCCTCCTTTTGGGG DNA 2: CCCCAAAAGGAGGACAAAATATACCTGTAGCTTCCAAATAGTCAAAATCACAATTAATTATTAAAAATAATAACAGAAAATTAAAACTCCATTAAATAGTTACCTAATGTTTCTCCTGCAGCATCAGGCATTGTGCTCCTTTAGC		binds
